According to the domain aggregation screens of Martell et al. (2025):

Assay: soluble fraction after stress (log2 fold change); higher = more stays soluble; pooled small domains, quantitative proteomics
Settings: stress: 75 degC
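Note: 20 min heating vs room temperature control held 20 min.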

Sequence: HMDKINQEAIEDEAGLWLAKIDGRQLAQEEVRELIAWMRRSDFHREYLITLARQWDGMAALNKLATLFP
- soluble fraction (log2): -2.08

Sequence: HMPMHPEDLKKLVSIEMPFGKHKGRIIADLPGNYLNWFAREGFPPGEIGRLLQLMQEIDHNGLSDLLKPLR
- soluble fraction (log2): -0.521

Sequence: HMGIIVDMSKIKQMLQLSEAGHSNRKIALELGINKETVNNYMQLIRNGRLDIRQLLKMDDPELERRFHA
- soluble fraction (log2): -0.965

Sequence: HMKIDLTPQEEKIYSVLETELTLDEIIMKTSIKAGEALAILMDLELKKLVASVAGGKYRRKA
- soluble fraction (log2): 0.386

Sequence: HMVSVEINTVERDETFRKMFTSGWKPENRIQALAVEQAKKNGLGRMSEVAGLASFRGIWKQATEQVALEA
- soluble fraction (log2): -0.213

Sequence: HMKRANGTGSVFKLNGKRRNPWVARVTQGFDDKGRQKYVNLGYYKTKREAENELLSYNSNPYDAN
- soluble fraction (log2): -0.238

Sequence: HMLESPVEAIIRQIKQLITNGKLKPGDRLPAERLLAENFGVGRGYVREAIMKLEFFGLLKTSPQSGTYVAG
- soluble fraction (log2): -1.39

Sequence: HMWMTAQDFRNSSLPWSATTSYNEGQSVRVVDGSNTYYYIAIVKTQPGQSPTTHPTSWREVDA
- soluble fraction (log2): -1.16

Sequence: HMEGIAEILPASVRQKYGLIGLYDALRGLHFPGNMEEIKAARQRLAFEDTLMFSLTLSMMQYS
- soluble fraction (log2): -0.146

Sequence: HMSKIRSEINKFSSDADKPILEWLFERYHWASQWRFVARFSEQRYGVLSYEINRVWEPTIEGRALYDQL
- soluble fraction (log2): -2.27

Sequence: HMNGSVLVTGGSVWIRAGASKETDGLGIVHKGDVLKRSGSDASGWRGVVYEGQNAFISAKYSSI
- soluble fraction (log2): -0.89

Sequence: HMAHYYVRNGYYYYQRRIPLDLRKFYSGANIKASLKTKDPAIAALFVAKFDRQYDAEFAQRRLNPD
- soluble fraction (log2): -0.533

Sequence: HMDVQEILGALSPDEKAAIGQLTSGEKHIDQIIAATRLPAARITSALTLLQIKGYVRALPGKRFSLTEKQ
- soluble fraction (log2): -1.87

Sequence: HMRTLRENIMDYFKQQTIIQKSSVILLPMSKRQLADYFGVQRPSLFRELKKLKEEGIIEINNRTITIK
- soluble fraction (log2): -1.8

Sequence: HMVAVSQEEATKMALERVSGASAQDIRIQLEFDDGIQKYEGDIIYNGREYEFEIDANTGTFLEWSEERA
- soluble fraction (log2): -0.176

Sequence: HMTMNYFIIENNQQVGPLTLEQLVARNITSDTLVWKEGMEDWQPAWKVDELHTVLDQIRANAEQ
- soluble fraction (log2): -0.00196

Sequence: HMQFLKPQDVLFLLKLVVLKGPASIFPAVPESLGLSKAEVHNSAKRVRGARLLPHDSWNPLRKNLLEFL
- soluble fraction (log2): -0.488

Sequence: HMDLIFQKGDLVFSTEHNQRGIFYEYLEQGQAKISIEKQFFVVAARRLQLLTKREVLYPAGYDLDQLFV
- soluble fraction (log2): -2.21

Sequence: HMQAGPEDIIRAKLKTAMPEAQIISIRPTPAGLYQVNAKGYESVFVTADGRYLFQGDLLEIQGDRIVNL
- soluble fraction (log2): -0.186

Sequence: HMYPIYDYISNMYLGKHLNAGMSLEEARGIMDEMLEKLLFDVPEEYHIDRDHFYEYLKKYYTERFSA
- soluble fraction (log2): -1.73

Sequence: HMISTVFYVDVKGEVHHPGVYQMKAENRVKDLIEAAGGFTPLADDQKLNLAQLLEDQMVIVVPKKGEEV
- soluble fraction (log2): 0.243

Sequence: HMANEGWDIYKLDIRNHKQPNGEYYSEKEIQSTINNTFGKGSFNVDWKKYEKDKEYREKTNYYYFQAKYFV
- soluble fraction (log2): -0.903

Sequence: HMGGLSAEQKNGIQSVLKNFDPKNLTSADAKSITSEFKKLGVQPGKDLETTMAASGFDAKEVGRLAF
- soluble fraction (log2): 0.106

Sequence: HMLPDVSITGHIFIRSGSRLNRIFVGESTYHVGDMLDGKWLIESINSDSLELRSGTQTTELPL
- soluble fraction (log2): -2.83

Sequence: HMPERLTYVHPDGAEPMRADKALAAFLSGRISRSRLLGSFSAGKVMAGGKPVEKKLLLRAGDALEVELPEP
- soluble fraction (log2): -0.239

Sequence: HMIMNLNVLANNVRRLRTAQRLSQSALASKAGLSVPAIKNLENARNEPRVNTVQVIAHALEVRLQDLFAPT
- soluble fraction (log2): -1.81

Sequence: HMRRVGTALNRSHKVSYGESIQSIAARYNVNPTMLREYNRLKPEATITPGQILRIPPATIAS
- soluble fraction (log2): -0.481

Sequence: HMRMSRSARLFDLLHILRSHRRAVSGQALAQQLGISIRTLYRDIASLQAQGAKIEGEPGVGYMLKP
- soluble fraction (log2): -1.82

Sequence: HMISFHEYLTQLLDEKGLTKAQVITDSNIQKNYGYQIFDGSKTPSRDKVIAIALAMQLTLDEANRLLHLSN
- soluble fraction (log2): -1.75

Sequence: HMGGLLSVIQKKAINNVKDRYSENAIKSMTKVQLHDLIKAETSRLLDPANAKETPEYQAFLEE
- soluble fraction (log2): -0.0634
